The results in this text go back to patent publication US20130129701, “Methods and Compositions for Sequence Specific RNA Endonucleases” (published 2013).

For data set [1], the target named is T1, PUF-R6(SYxxR) purified (Homo sapiens, UniProt Q14671 Q14671:828-1176, N1043S/Q1047R).
T1 sequence: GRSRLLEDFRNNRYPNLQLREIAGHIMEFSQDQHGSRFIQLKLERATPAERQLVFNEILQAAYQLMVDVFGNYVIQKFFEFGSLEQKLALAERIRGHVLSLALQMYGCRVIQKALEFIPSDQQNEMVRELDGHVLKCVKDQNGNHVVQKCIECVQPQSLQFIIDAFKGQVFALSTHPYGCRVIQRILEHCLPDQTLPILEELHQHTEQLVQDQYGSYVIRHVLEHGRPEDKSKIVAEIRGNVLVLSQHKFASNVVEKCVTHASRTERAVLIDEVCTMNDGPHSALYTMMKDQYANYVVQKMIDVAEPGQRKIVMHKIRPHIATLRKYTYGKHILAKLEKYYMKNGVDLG
Briefly: EMSA; 0.2 uM protein, 1 nM biotinylated RNA, 1 mM MgCl2, room temperature. On the procedure: Protein concentration was determined by Bradford assay. RNAs were generated by in vitro transcription and purified on denaturing gels. 50 pmol of RNAs were labeled at the 3′ end with biotinylated cytidine bisphosphate using T4 RNA ligase following manufacturer's directions (Thermo Scientific Pierce RNA 3′ End Biotinylation Kit). In each sample, 20 fmol of labeled RNA (1 nM) and 4 pmol of proteins (0.2 μM) were incubated in binding buffer (10 mM HEPES, pH 7.3, 20 mM KCl, 1 mM MgCl₂, 1 mM DTT, and 0.1 g/L tRNA) for 1 hour at room temperature. The binding reactions were separated by electrophoresis on 6% nondenaturing PAGE run with 1×TBE at 4° C., transferred to nylon membranes, and crosslinked to the membrane by UV. Biotin-labeled RNA was detected by chemiluminescence using the Thermo Scientific LightShift Chemiluminescent RNA EMSA Kit following manufacturer's directions.

The target of data set [2] is T1, PUF-R6(SYxxR) purified. Briefly: structure; PDB 2yjy. How it is done:
Crystals of PUF-R6(SYxxR) mutant and C3 RNA (5′-[…]) were grown by sitting drop vapor diffusion. RNA oligonucleotide was obtained from Dharmacon (Lafayette, Colo.). The protein-RNA complex was prepared by mixing a 1:1.1 molar ratio of purified protein (3.5 mg/ml) and RNA in a buffer containing 20 mM Tris-HCl, pH 7.5; 100 mM NaCl; and 1 mM DTT. One μl of complex solution was added to 1 μl of a well solution containing 30% PEG 3350, 0.2M ammonium tartrate dibasic, and 0.1M bis-Tris, pH 5.5. Crystals were flash frozen after adding an equal volume of cryoprotectant solution (32% PEG 3350, 20% ethylene glycol) to the drop. Diffraction data were collected at the SER-CAT beamline ID-22, Advanced Photon Source at wavelength 1.0 Å and −180° C. All data sets were indexed, integrated, and scaled with the HKL2000 suite (21). The structure was determined by molecular replacement using the structure of human Pumilio1 (PDB ID: 1M8Y) as a search model with PHASER (22). Two complexes are present in the asymmetric unit. Iterative model building was performed with COOT (23), and the resulting models were refined with PHENIX (24). All Phi-Psi angles are within allowable regions of the Ramachandran plot. The atomic coordinates and structure factors have been deposited in the Protein Data Bank (PDB ID: 2yjy).

For the molecule UGCAUAUA (ssRNA) [C3 RNA], in the data set with PUF-R6(SYxxR) purified [1], the binding result is recorded as “binds”.

Consider AUUGCAUAUA (ssRNA) [C3 RNA crystallization 10-mer], for which, in the data set with PUF-R6(SYxxR) purified [2], the binding result was “binds”.
